Data published in patent US20020090382A1, “Antiviral compounds and methods” (University of Pittsburgh of the Commonwealth System of …, priority 2000, published 2002).

Legend:
CHO-HveC cells = test: Transient complementation of gD-null virus KΔUS3-8Z, entry into CHO-HveC cells (lacZ); format: cell-based, Chinese hamster; conditions: relative to wild-type gD (100%) and gD− (0%); KΔUS3-8Z virus, A420 β-galactosidase
Source text: (§1) In a first transient complementation assay, several cell lines were employed. VD60 cells express wild-type gD endogenously which complements the deleted gD gene of KΔUS3-8Z for plaque formation, but only if the virus can initially infect using the gD product of the transfected gene. Thus, plaque formation on VD60 cells indicates complementation of gD's attachment/entry function by the transfected gene. CHO cells lack gD receptors and are resistant to HSV infection, but CHO cells transduced with HveA or HveC expression plasmids (CHO-HveA and CHO-HveC cells, respectively) are susceptible. KΔUS3-8Z misses the complete gD gene (US6) due to a large deletion extending from US3 to US8 and therefore offers no target for homologous recombination with transfected gD genes or the stable gD gene of VD60 cells. […] Since the progeny virus lacks gD, plaques will not form on these cells and virus entry was therefore determined by measurement of lacZ reporter gene expression.
(§2) To conduct the assay, Vero cells were transfected with LIPOFECTAMINE-PLUS (GIBCO) for 4 h at 37° C., the cell monolayers washed and incubated with DMEM/10% fetal bovine serum (FBS) for 16 h at 37° C., and the transfected cells infected with KΔUS3-8Z at an MOI of 3 for 2 h at 37° C. After removal of the medium and inactivation of residual extracellular virus by incubation of the monolayer with 0.1M glycine (pH 3.0) for 1 min at room temperature, fresh medium was added and the cells incubated at 37° C. for 48 hours. The medium was subsequently removed and temporarily stored on ice while the cells were being lysed by freeze-thawing and sonication. Cell debris was pelleted by low-speed centrifugation and the supernatant combined with the previously stored medium. Virus titers were determined on gD-complementing VD60 cells. Complementing activity was determined by infection of CHO-HveA, CHO-HveC, and control CHO-K cells. Infected cells were lysed in a buffer containing 1% NP-40, 1 mM MgCl2, 50 mM β-mercaptoethanol, and 4 mg/ml β-galatosidase substrate O-nitrophenyl β-D-galactopyranoside (ONPG, Sigma) in a total volume of 50 μl. The enzyme-substrate reaction was carried out at 37° C. and stopped by addition of an equal volume of 1M Na2CO3 after color development. β-galactosidase activity was measured by reading the absorbance at 420 nm. One hundred percent complementation was defined as the difference between the A420 values obtained for the wild-type (pSP72-gD) and negative control (pgD^−) gD plasmids. Relative complementation efficiencies were calculated as 100%×[A420(mutant)−A420(gD^−)]/[A420(wild type)−A420(gD^−)].

VD60 cells = test: Transient complementation of gD-null virus KΔUS3-8Z, titers on VD60 cells; format: cell-based; conditions: relative to wild-type gD (100%) and gD− (0%); KΔUS3-8Z virus
Source text: as §1, §2

CHO-HveA cells = test: Transient complementation of gD-null virus KΔUS3-8Z, entry into CHO-HveA cells (lacZ); format: cell-based, Chinese hamster; conditions: relative to wild-type gD (100%) and gD− (0%); KΔUS3-8Z virus, A420 β-galactosidase
Source text: as §1, §2

Molecule | % Complementation CHO-HveC (CHO-HveC cells) [%] | % Complementation VD60 (VD60 cells) [%] | % Complementation CHO-HveA (CHO-HveA cells) [%]
L25D (protein) KYALIDASLKMADPNRFRGKDLPVDDQLTDPPGVRRVYHIQAGLPDPFQPPSLPITVYYAVLERACRSVLLNAPSEAPQIVRGASEDVRKQPYNLTIAWFRMGGNCAIPITVMEYTECSYNKSLGACPIRTQPRWNYYDSFSAVSEDNLGFLMHAPAFETAGTYLRLVKINDWTEITQFILEHRAKGSCKYALPLRIPPSACLSPQAYQQGVTVDSIGMLPRFIPENQRTVAVYSLKIAGWHGPKAPYTSTLLPPELSETPNATQPELAPEDPEDSALLEDPVGTVAPQIPPNWHIPSIQDAATPYHPPATPNNMGLIAGAVGGSLLAALVICGIVYWMHRRTRKAPKRIRLPHIREDDQPSSHQPLFY | 14 | 10 | 0
D26H (protein) KYALIDASLKMADPNRFRGKDLPVLHQLTDPPGVRRVYHIQAGLPDPFQPPSLPITVYYAVLERACRSVLLNAPSEAPQIVRGASEDVRKQPYNLTIAWFRMGGNCAIPITVMEYTECSYNKSLGACPIRTQPRWNYYDSFSAVSEDNLGFLMHAPAFETAGTYLRLVKINDWTEITQFILEHRAKGSCKYALPLRIPPSACLSPQAYQQGVTVDSIGMLPRFIPENQRTVAVYSLKIAGWHGPKAPYTSTLLPPELSETPNATQPELAPEDPEDSALLEDPVGTVAPQIPPNWHIPSIQDAATPYHPPATPNNMGLIAGAVGGSLLAALVICGIVYWMHRRTRKAPKRIRLPHIREDDQPSSHQPLFY | 11 | 17 | 10
L25H (protein) KYALIDASLKMADPNRFRGKDLPVHDQLTDPPGVRRVYHIQAGLPDPFQPPSLPITVYYAVLERACRSVLLNAPSEAPQIVRGASEDVRKQPYNLTIAWFRMGGNCAIPITVMEYTECSYNKSLGACPIRTQPRWNYYDSFSAVSEDNLGFLMHAPAFETAGTYLRLVKINDWTEITQFILEHRAKGSCKYALPLRIPPSACLSPQAYQQGVTVDSIGMLPRFIPENQRTVAVYSLKIAGWHGPKAPYTSTLLPPELSETPNATQPELAPEDPEDSALLEDPVGTVAPQIPPNWHIPSIQDAATPYHPPATPNNMGLIAGAVGGSLLAALVICGIVYWMHRRTRKAPKRIRLPHIREDDQPSSHQPLFY | 12 | 14 | 0
L25T (protein) KYALIDASLKMADPNRFRGKDLPVTDQLTDPPGVRRVYHIQAGLPDPFQPPSLPITVYYAVLERACRSVLLNAPSEAPQIVRGASEDVRKQPYNLTIAWFRMGGNCAIPITVMEYTECSYNKSLGACPIRTQPRWNYYDSFSAVSEDNLGFLMHAPAFETAGTYLRLVKINDWTEITQFILEHRAKGSCKYALPLRIPPSACLSPQAYQQGVTVDSIGMLPRFIPENQRTVAVYSLKIAGWHGPKAPYTSTLLPPELSETPNATQPELAPEDPEDSALLEDPVGTVAPQIPPNWHIPSIQDAATPYHPPATPNNMGLIAGAVGGSLLAALVICGIVYWMHRRTRKAPKRIRLPHIREDDQPSSHQPLFY | 3 | 14 | 0
